Experimental data: patent US10487307B2, “Culture method for pluripotent stem cells” (FUJIFILM CORPORATION, priority 2013, dated 2019)

B1: RCP-1: recombinant polypeptide for culture, SEQ ID NO: 15; human vitronectin positions 1-55 and 269-459 with N-terminal methionine (protein)
chain: MDQESCKGRCTEGFNVDKKCQCDELCSYYQSCCTDYTAECKPQVTRGDVFTMPEDEPSQEECEGSSLSAVFEHFAMMQRDSWEDIFELLFWGRTSAGTRQPQFISRDWHGVPGQVDAAMAGRIYISGMAPRPSLAKKQRFRHRNRKGYRSQRGHSRGRNQNSRRPSRATWLSLFSSEESNLGANNYDDYRMDWLVPATCEPIQSVFFFSGDKYYRVNLRTRRVDTVDPPYPRSIAQYWLGCPAPGHL
modifications: Vitronectin-derived Recombinant Protein (RCP-1)
B2: RCP-11: recombinant polypeptide for culture, SEQ ID NO: 25; vitronectin positions 1-55, 269-277, 295-341, 342-373, C274S (protein)
chain: MDQESCKGRCTEGFNVDKKCQCDELCSYYQSCCTDYTAECKPQVTRGDVFTMPEDESQEESEGSEDIFELLFWGRTSAGTRQPQFISRDWHGVPGQVDAAMAGRIYISGMAPRPSLAKKQRFRHRNRKGYRSQRGHSRGRNQN
modifications: Vitronectin-derived Recombinant Protein (RCP-11)
notes: vitronectin positions 1-55, 269-277, 295-341, 342-373, C274S
B3: RCP-5: recombinant polypeptide for culture, SEQ ID NO: 19; vitronectin positions 1-55, 302-341, 342-373 (protein)
chain: MDQESCKGRCTEGFNVDKKCQCDELCSYYQSCCTDYTAECKPQVTRGDVFTMPEDEFWGRTSAGTRQPQFISRDWHGVPGQVDAAMAGRIYISGMAPRPSLAKKQRFRHRNRKGYRSQRGHSRGRNQN
modifications: Vitronectin-derived Recombinant Protein (RCP-5)

Legend:
[1] = Aggregation after dialysis of purified polypeptide solution; format: physicochemical; set-up: key: G: The formation of an aggregate was not observed.; A: The formation of particles having a particle size of about 100 nm was observed.; B: The formation of an aggregation of particles having a particle size of equal to or greater than 1 mm was visually observed
Method: For RCP-1 to RCP-11, each of the purified polypeptide solutions was dialyzed using Slide-A-Lizer (3.5 K MWCO.). Basically, by using a dialysis buffer (PBS, 1.5 M NaCl, 0.5 M L-arginine, 1 mM EDTA, pH 7.4) as an outer dialysate, urea was removed by stepwise dialysis. The concentration of the end-product of dialysis was calculated from the absorbence at 280 nm by using NanoDrop (Thermo Fisher Scientific Inc.).
Whether or not aggregation was occurred was evaluated based on the scale of A, and B as shown below.
G: The formation of an aggregate was not observed.
A: The formation of particles having a particle size of about 100 nm was observed.
B: The formation of an aggregation of particles having a particle size of equal to or greater than 1 mm was visually observed.

human iPS cells ("Tic") = assay: Cell adhesiveness evaluation 1 (ALP activity of adhesive iPS cells); format: cell-based; settings: 30,000 cells/well, 24 hours, natural vitronectin (sample 15) = 100%, n=3
Summary of the method: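 Peptides and controls were adsorbed onto wells for 2 h at 37 °C. Single-cell human iPS cells in TeSR2 with 10 μM Y-27362 were seeded at 30,000 cells/well. After 24 h, non-adherent cells were washed off and adherent cells fixed; cell number came from ALP activity via a calibration curve. Adhesion is expressed relative to natural vitronectin (100%), n=3.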

iPS cells = assay: Growth evaluation, number of cells after 3 days; format: cell-based, human; settings: 5,000 cells/well
Method: By adding RCP-1 to RCP-11 and Human Recombinant Laminin-511 as control at the concentration shown in Table 9, samples 1 to 12 were prepared. The samples were seeded into a 96-well plate, onto which each of the polypeptides was adsorbed in the same manner as in <Cell adhesiveness evaluation 1>, at a ratio of 5,000 cells/well and cultured for 3 days in a CO2 incubator at 37° C. The number of cells after 3 days was calculated in the same manner as in <Cell adhesiveness evaluation 1>. In Table 9, the number of cells after 3 days is expressed as a ratio calculated by regarding the number of cells obtained by using the sample 1 as being 100%.

Row | Molecule | Aggregation [1] | Cell adhesion rate (%) (human iPS cells ("Tic"); added amount 200 pmol/cm^2) | Number of cells after 3 days (%) (iPS cells; added amount 80 μg/cm^2, sample 1 = 100%) | Cell adhesion rate (%) (human iPS cells ("Tic"); added amount 5 μg/cm^2) | Number of cells after 3 days (%) (iPS cells; added amount 5 μg/cm^2, sample 1 (RCP-1) = 100%) | Cell adhesion rate (%) (human iPS cells ("Tic"); added amount 10 μg/cm^2) | Number of cells after 3 days (%) (iPS cells; added amount 10 μg/cm^2, sample 1 (RCP-1) = 100%)
1 | B1 | A | 109.3 ± 5.3% | 100.0% | – | – | – | –
2 | B2 | A | – | – | 95.9 ± 4.6% | 153.5% | – | –
3 | B3 | G | – | – | – | – | 94.1 ± 6.5% | 121.2%
